The results in this text go back to patent publication US9060960B2, “Treatment of dissection, aneurysm, and atherosclerosis using granzyme B inhibitors” (The University of British Columbia, priority 2007, dated 2015).

Where “and” joins values, the source holds several entries; their conditions need not be identical. Equal values may be shown once.

Data set [1] has as its system apoE-KO and GrB/apoE-DKO mice. Put plainly: ApoE-KO model of angiotensin-II-induced AAA (Examples 8-14). Format: in vivo, mouse. Particulars: for survival to 28 days: chronic angII infusion 1000 ng/min/kg. The source says: All animal protocols were approved by the University of British Columbia (UBC) Animal Care Committee. C57B1/6 mice, C57B1/6-ApoE−/− and C57B1/6-GrB−/− mice were obtained from Jackson Laboratories (Bar Harbor, Me.) ([…] et al. 1992. Proc Natl. Acad Sci 89: 4471-4475; HEUSEL et al 1994 Cell 76:977-987). The C57B1/6-ApoE−/− x GrB−/− double knockout (ApoE/GrB-DKO) mice were generated by crossing the C57B1/6-ApoE−/− and C57B1/6-GrB−/− mouse strains. […] The pups were weaned at 3 weeks of age and then maintained on a 12-hour day and night cycle with food and water provided ad libitum.
ALZET™ osmotic pumps (DURECT Corporation, Cupertino, Calif.) are miniature, implantable pumps commonly used for research in mice and rats. These infusion pumps continuously deliver drugs and other test agents at controlled rates from one day to four weeks without the need for external connections or frequent handling. ALZET™ pumps operate by osmotic displacement. An empty reservoir within the core of the pump is filled with the drug solution to be delivered. Due to the presence of a high concentration of salt in a chamber surrounding the reservoir, water enters the pump through its outer surface. This entry of water increases the volume in the salt chamber, causing compression of the flexible reservoir and delivery of the drug solution into the animal.
Mice were weighed immediately before calculating doses, and the mean weight of mice per group was used. Since mice on a regular diet gain 0.5 g of weight per week, the drug dose was calculated based on the projected mid weight of the experiment (so mice were slightly overdosed for the first two weeks and under-dosed for the final two weeks). The dose was calculated based on the pump fill volume, mean pumping rate, and the midpoint weight of the mice to achieve a value of 1.44 mg/kg/day, (equivalent to 1000 ng/min/kg). To ensure accurate filling, pumps were weighed before and after filling, and a value of 1 mg equal to 1 μL was used when assessing fill volume. […] All pumps and solutions were worked with under sterile conditions. […] All test tubes were placed in the incubator at 37° C. for 24 hours prior to implantation.
On day 1, mice were brought into the GEM micro-procedure room Animals were anesthetised with gaseous anaesthetic at a flow rate of 1.5 L per minute of oxygen with 2.5% of isoflurane delivered via a Baines system using a calibrated tabletop anaesthetic machine, administered from a rodent nose cone. Depth of anaesthesia was monitored by toe pinch response and breathing. Eyes were protected using ocular lubricant. The back of the mouse was shaved, and the legs were taped down. The back of the mouse was then sterilized with 70% ethanol, followed by iodine. The mouse was then moved to the surgical table, so that the dissecting microscope could be utilised.
Under sterile conditions, a lateral incision was made below the scapula, and the skin was blunt dissected from the subcutaneous layer, making a hole large enough to fit the minipump. The minipump was inserted with the flow regulator angled towards the head. Incisions were closed with 2-4 dissolving discontinuous sutures. Isoflurane was then shut off, allowing the mouse to breathe pure oxygen, and a dose of buprenorphine was administered for pain relief After 1 hour, when the mice had recovered from anaesthesia, they were moved back to the animal holding room. The mice were monitored daily for the remainder of the experiment.
Blood was collected by cardiac puncture following CO2 euthanization.

In data set [2] the test system is C57, apoE-KO and GrB/apoE-DKO mice. Briefly: Angiotensin-II infusion aortic dissection model (Example 7). Format: in vivo, mouse. The procedure:
Aortic dissections were induced with 28 day infusion of 2000 ng/kg/min angiotensin-II dissolved in saline, or placebo, through an ALZET™ osmotic pump (model 1004). The pumps were implanted into the subcutaneous space in the upper dorsal regions through a small incision site at the back of the neck of the anesthetized mouse, and the incision was closed with dissolving sutures. The mice were euthanized by carbon dioxide inhalation followed by cardiac puncture 28-days post implantation. The thoracic cavity and abdominal cavity were then opened, and the circulation perfused with PBS via a cannula placed in the left ventricle, with fluid drained from a severed right atria. Following PBS perfusion, fresh 10% formalin was perfused in the same manner. The heart, kidneys and entire aorta to the iliac bifurcation was then carefully dissected from the animal, and photographed en masse.
Aortic dissections were defined by blood accumulation between the media and outer aortic wall. Mice that were found dead without any preceding signs of suffering were defined as sudden death.

Data set [3] has as its system skin elastin (3H-elastin). Put plainly: 3H-elastin cleavage assay (skin elastin). Format: biochemical. Here is the method: (§1) FIG. 6 Granzyme B degrades elastin in vitro. Granzyme B was incubated with ^3H-elastin for 7 days at room temperature. Elastase was incubated with ^3H-elastin for 2 hours. Supernatants containing the soluble elastin cleavage fragments were collected and counted. Data is represented as fold increase in radioactivity over the control (elastin only). (n=2).
(§2) Tritiated elastin was prepared with the modifications as described in Banda, M. J. and Werb, Z. (1981) Biochem, J. 193: 589-605 and Gordon, S., Werb, Z. and Cohn, Z. A. (1976) in In Vitro Methods in Cell Mediated and Tumor Immunity, eds. Bloom, B. R. and David, J. R. (Academic Press, New York), pages 349-350. 1 mg of skin or aortic elastin was diluted in 1 ml dH2O and pHed to 9.2. 1 mCi NaB3H4 (PerkinElmer™, Waltham Mass.) and 2 mg of […] (Sigma™, St. Louis, Mo.) was added. After 2 hours of incubation, the pH was adjusted to 3.0 and the elastin was incubated for an additional 30 minutes. The elastin was centrifuged for 3 minutes at 5000×g and the pellet was repeatedly washed to remove excess NaB3H4. […] The radioactivity of the soluble, cleaved elastin fragments in the supernatant was counted in Ready Safe Scintillation Fluid (Beckman-Coulter™, Fullerton, Calif.). The radioactivity of the cleaved, soluble elastin fragments was 4.8 times and 2.7 times higher than background for skin and aortic elastin, respectively (FIG. 6).

The subject of data set [4] is aortic elastin (3H-elastin). Briefly: 3H-elastin cleavage assay (aortic elastin). Format: biochemical. Here is the method: as §1, §2
Data set [5] has as its system human insoluble aortic (Ao) elastin. Put plainly: in vitro granzyme B elastin binding assay (aortic elastin). The conditions noted are these: 50, 100, 300 ng granzyme B; 15 μg aortic elastin; PBS, 3 hours, room temperature. The procedure:
(§3) An in vitro granzyme B elastin binding assay was conducted in the following manner. Granzyme B at 50, 100 and 300 ng was incubated with 15 μg of human insoluble skin (Sk) and aortic (Ao) elastin (Elastin Products Company™, Owensville, Mo.) in PBS for three hours at room temperature. The samples were centrifuged at 1000×g at room temperature for three minutes and the insoluble elastin collected in the pellet. The supernatants, which contained unbound granzyme B, were denatured with SDS loading buffer and run on a 10% SDS-PAGE gel. Granzyme B was detected by Western blot. Each gel contained three lanes: a first lane related to a sample containing granzyme B in the absence of elastin; a second lane related to the samples containing granzyme B and human insoluble skin elastin; and a third lane related to the sample containing granzyme B and aortic elastin. […] This phenomenon was dose-dependent and not restricted to the type of elastin used (i.e. skin elastin or aortic elastin).

The test system of data set [6] is vitronectin. Put plainly: Western blot for vitronectin on granzyme B-treated SMCs. The data set is classed as biochemical, human. The conditions noted are these: SMCs treated with granzyme B for 24 hours. The procedure: (§4) Extracellular proteins from SMC cultures were biotinylated and incubated with granzyme B. The supernatant was collected at 2, 4 and 24 hours after treatment, and the entire insoluble extracellular protein preparation collected at 24 hours. Extracellular proteins were visualized by Western blot for biotin. Western blot for beta-actin confirmed that the extracellular protein preparation was devoid of intercellular proteins. Western blots for fibronectin, phosphorylated FAK (p-FAK), and FAK were also performed on lysates of SMC treated with granzyme B. In the collected insoluble proteins, four protein bands between approximately 50-70 kDa and approximately 236 kDa disappeared 24 hours after treatment with granzyme B and cleavage of fragments approximately 25-39 kDa were evident in the matrix at this same time point. Further, the six proteins and/or cleavage fragments ranging in molecular weight from approximately 29-148 kDa were eluted into the supernatant as early as two hours after granzyme B treatment. […]
(§5) To identify extracellular proteins that are cleaved by granzyme B, western blots for fibronectin, collagen, and vitronectin on lysates from untreated and granzyme B-treated SMCs were performed. […] In the supernatants of granzyme B-treated SMCs at 24 hours, a fibronectin cleavage product was detected. […]
For orientation: A western blot detects proteins with antibodies after separation by electrophoresis.

Data set [7] has as its system human coronary artery smooth muscle cells (SMC) matrix. Briefly: Cleavage of biotinylated SMC extracellular proteins. Format: biochemical. Particulars: supernatant at 2, 4, 24 hours; insoluble matrix at 24 hours. The procedure: Extracellular proteins from SMC cultures were biotinylated and incubated with granzyme B. The supernatant was collected at 2, 4 and 24 hours after treatment, and the entire insoluble extracellular protein preparation collected at 24 hours. Extracellular proteins were visualized by Western blot for biotin. Western blot for beta-actin confirmed that the extracellular protein preparation was devoid of intercellular proteins. Western blots for fibronectin, phosphorylated FAK (p-FAK), and FAK were also performed on lysates of SMC treated with granzyme B. In the collected insoluble proteins, four protein bands between approximately 50-70 kDa and approximately 236 kDa disappeared 24 hours after treatment with granzyme B and cleavage of fragments approximately 25-39 kDa were evident in the matrix at this same time point. Further, the six proteins and/or cleavage fragments ranging in molecular weight from approximately 29-148 kDa were eluted into the supernatant as early as two hours after granzyme B treatment. To ensure that the SMC extracellular protein preparations used were devoid of intracellular proteins, Western blotting for beta-actin was performed on the collected supernatant and extracellular proteins. Beta-actin was apparent in SMC lysates (positive control) but was absent from matrix and supernatant preparations.

The test system of data set [8] is collagen IV. Briefly: Western blot for collagen on granzyme B-treated SMCs. Format: biochemical, human. Particulars: SMCs treated with granzyme B for 24 hours. The procedure:
as §4, §5

Data set [9] has as its system human insoluble skin (Sk) elastin. Briefly: in vitro granzyme B elastin binding assay (skin elastin). The conditions noted are these: 50, 100, 300 ng granzyme B; 15 μg skin elastin; PBS, 3 hours, room temperature. Here is the method:
as §3

Data set [10] concerns the target T1, fibrillin-1 (Homo sapiens, UniProt P35555).
T1 construct: cells were lysed with NH4OH so that the intact extracellular matrix (ECM) remained on the plate; endogenous in cells; host or cells: human coronary artery smooth muscle cells (decellularised ECM)
Briefly: Fibrillin cleavage on SMC extracellular matrix by Western blot. Particulars: Granzyme B (80 nm) on ECM, 24 hours, room temperature. Format: biochemical. Here is the method:
Human coronary artery smooth muscle cells were cultured to confluency and serum starved for 48 hours at which time cells were lysed with NH4OH so that the intact extracellular matrix (ECM) remained on the plate. Granzyme B (80 nm) was incubated on the ECM for 24 hours at room temperature. Supernatants (containing cleaved ECM) and ECM still attached to the plate were collected and assessed for fibrillin cleavage by Western blot. The arrows in FIG. 7 indicate fibrillin-1 cleavage fragments.

Data set [11] concerns the target T2, fibronectin (Homo sapiens, UniProt P02751).
T2 construct: endogenous in cells; host or cells: human coronary artery smooth muscle cells
Briefly: Western blot for fibronectin on granzyme B-treated SMCs. Format: biochemical. The conditions noted are these: SMCs treated with granzyme B for 24 hours. The procedure: as §4, §5

T2 sequence (P02751 32-2477): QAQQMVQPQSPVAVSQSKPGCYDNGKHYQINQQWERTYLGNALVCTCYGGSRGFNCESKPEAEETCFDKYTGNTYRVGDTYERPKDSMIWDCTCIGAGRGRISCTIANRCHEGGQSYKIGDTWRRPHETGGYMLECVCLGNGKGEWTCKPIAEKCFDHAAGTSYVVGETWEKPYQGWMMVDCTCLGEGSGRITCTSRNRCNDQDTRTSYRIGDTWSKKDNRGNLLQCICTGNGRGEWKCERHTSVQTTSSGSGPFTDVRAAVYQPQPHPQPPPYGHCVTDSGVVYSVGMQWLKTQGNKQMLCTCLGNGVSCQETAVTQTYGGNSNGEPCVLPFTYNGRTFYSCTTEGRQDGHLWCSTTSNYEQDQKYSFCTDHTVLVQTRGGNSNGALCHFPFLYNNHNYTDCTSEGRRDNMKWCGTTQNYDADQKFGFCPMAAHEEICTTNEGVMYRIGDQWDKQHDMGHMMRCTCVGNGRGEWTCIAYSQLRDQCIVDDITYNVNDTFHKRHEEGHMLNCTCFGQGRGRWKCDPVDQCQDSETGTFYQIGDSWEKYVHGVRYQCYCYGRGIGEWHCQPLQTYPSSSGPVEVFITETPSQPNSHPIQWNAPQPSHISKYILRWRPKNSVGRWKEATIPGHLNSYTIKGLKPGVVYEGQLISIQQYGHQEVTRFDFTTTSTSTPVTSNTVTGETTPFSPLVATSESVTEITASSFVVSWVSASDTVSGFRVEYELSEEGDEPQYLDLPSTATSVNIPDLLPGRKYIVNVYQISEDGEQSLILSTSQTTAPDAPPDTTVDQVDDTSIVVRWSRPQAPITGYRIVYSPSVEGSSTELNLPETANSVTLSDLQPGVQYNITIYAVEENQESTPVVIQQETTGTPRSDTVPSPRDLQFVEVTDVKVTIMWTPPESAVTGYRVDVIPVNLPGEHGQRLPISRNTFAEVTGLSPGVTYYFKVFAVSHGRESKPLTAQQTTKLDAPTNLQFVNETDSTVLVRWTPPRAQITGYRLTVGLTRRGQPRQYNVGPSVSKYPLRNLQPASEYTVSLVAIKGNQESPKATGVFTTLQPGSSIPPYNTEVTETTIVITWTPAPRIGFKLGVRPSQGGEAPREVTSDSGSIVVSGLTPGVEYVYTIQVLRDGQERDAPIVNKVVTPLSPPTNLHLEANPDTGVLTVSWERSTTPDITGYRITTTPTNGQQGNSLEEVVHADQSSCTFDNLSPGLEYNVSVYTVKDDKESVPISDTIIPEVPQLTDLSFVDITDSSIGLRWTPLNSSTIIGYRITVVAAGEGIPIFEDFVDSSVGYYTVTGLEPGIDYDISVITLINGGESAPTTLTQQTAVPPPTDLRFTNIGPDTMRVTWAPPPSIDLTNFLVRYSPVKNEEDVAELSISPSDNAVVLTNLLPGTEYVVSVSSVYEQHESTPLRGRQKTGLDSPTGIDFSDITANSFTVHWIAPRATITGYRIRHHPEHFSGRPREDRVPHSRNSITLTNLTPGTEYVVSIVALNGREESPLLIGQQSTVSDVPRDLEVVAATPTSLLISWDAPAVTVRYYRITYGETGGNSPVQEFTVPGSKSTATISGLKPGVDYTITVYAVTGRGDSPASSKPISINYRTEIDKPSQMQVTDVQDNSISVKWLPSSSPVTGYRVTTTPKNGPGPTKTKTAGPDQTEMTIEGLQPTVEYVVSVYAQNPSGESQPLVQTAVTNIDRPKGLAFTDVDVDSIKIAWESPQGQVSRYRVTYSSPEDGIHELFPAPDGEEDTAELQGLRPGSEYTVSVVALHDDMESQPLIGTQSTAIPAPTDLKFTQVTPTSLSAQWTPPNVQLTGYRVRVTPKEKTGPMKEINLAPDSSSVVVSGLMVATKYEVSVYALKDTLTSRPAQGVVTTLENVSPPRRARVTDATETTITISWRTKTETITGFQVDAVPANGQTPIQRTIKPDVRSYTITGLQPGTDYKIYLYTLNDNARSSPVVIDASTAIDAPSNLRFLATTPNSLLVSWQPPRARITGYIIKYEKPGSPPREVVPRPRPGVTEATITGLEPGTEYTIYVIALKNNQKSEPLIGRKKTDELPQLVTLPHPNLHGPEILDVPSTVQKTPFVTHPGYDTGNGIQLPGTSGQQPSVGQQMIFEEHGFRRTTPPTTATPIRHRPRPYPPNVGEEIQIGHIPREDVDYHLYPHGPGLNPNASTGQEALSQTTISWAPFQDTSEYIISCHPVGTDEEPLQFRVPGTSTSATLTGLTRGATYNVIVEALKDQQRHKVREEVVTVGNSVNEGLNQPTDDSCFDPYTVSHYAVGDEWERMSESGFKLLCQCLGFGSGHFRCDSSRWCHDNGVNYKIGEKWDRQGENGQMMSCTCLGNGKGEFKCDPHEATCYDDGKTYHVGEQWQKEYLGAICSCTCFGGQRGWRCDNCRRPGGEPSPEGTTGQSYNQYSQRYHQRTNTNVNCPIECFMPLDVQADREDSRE

Turning to “angII: angiotensin II from Sigma, infused by osmotic minipump to induce aneurysm and dissection in mice (DRVYIHPF; Angiotensin-2; UniProt P01019 25-32, looked up)”, the “medial thickness of thoracic and abdominal aortas versus saline” value in data set [1] (28 days, significant only for apoE-KO thoracic samples (p<0.05)) was “trend for medial thickness to increase”. Moreover, the “survival to 28 days” value in data set [1] (GrB/apoE-DKO mice (n=15)) was 86.67%; in data set [1] (apoE-KO mice (n=16)), 56.25% and 53%. Besides, the Weight change in [1] (GrB/apoE-DKO mice surviving to 28 days) is -0.3 g; in data set [1] (apoE-KO mice surviving to 28 days), 1.0 g. The “n at 28 days” value was 13 in data set [1] (GrB/apoE-DKO mice, n at 0 days 15) and 9 in data set [1] (apoE-KO mice, n at 0 days 16). For the same substance, the “mice with small abdominal aortic aneurysm (AAA)” value in data set [1] (GrB/apoE-DKO surviving mice, day 28) was found to be 30%. Further, the “abdominal aortic lumen area versus saline” value in data set [1] (apoE-KO mice, 28 days, one-way ANOVA/Dunn's, p<0.05) is given as “statistically significant increase”. Moreover, the gross pathological outcome in data set [1] (apoE-KO surviving mice, day 28) was “developed aortic dissections”. The “percent aortic root lumen covered by plaque” value in data set [1] (either genotype, angII versus saline, 28 days, p>0.05) is recorded as “No significant difference”. The “sudden death before the 28-day time point” value in [2] (apoE-KO mice, 2000 ng/kg/min infusion, four of eight) is given as 50%. Further, in data set [2] (apoE-KO mice, 2000 ng/kg/min, 28 day infusion, seven of eight), the “mice that developed aortic dissections or succumbed to sudden death” value is on record as 87.5%. Further, in data set [2] (wildtype and GrB/apoE-DKO mice, 2000 ng/kg/min, 28 day infusion), the aortic dissections result is given as “none developed aortic dissections”. In addition, the sudden death result in data set [2] (wildtype mice, 2000 ng/kg/min, 28 day infusion) is reported as “zero of six”.
elastase: the “radioactivity increase over background” value is 14.9 fold in data set [3] (skin elastin, 25 μg elastase, 2 hours, positive control) and 7.7 fold in data set [4] (aortic elastin, 25 μg elastase, 2 hours, positive control).
Take “granzyme B: serine protease; the patent's target enzyme, tested for binding and cleavage of extracellular matrix proteins”: the “unbound granzyme B band in supernatant (Western blot)” value in data set [5] is “No band appeared”. Besides, in [6], the cleavage of vitronectin entry is given as “no cleavage”. Also, the “cleavage of extracellular proteins (Western blot for biotin)” value in data set [7] is on record as “induced a cleavage of a number of extracellular proteins”. For the same substance, in data set [8], the “cleavage of collagen IV” value is reported as “no cleavage”. The “unbound granzyme B band in supernatant (Western blot) versus sample without elastin” value in [9] is given as “dramatically less pronounced”. The “radioactivity of the cleaved, soluble elastin fragments” value in data set [3] (skin 3H-elastin 0.15 mg, granzyme B 0.75 μg added 5 times, room temperature, 7 days) is recorded as 4.8 times higher than background; in data set [4] (aortic 3H-elastin 0.15 mg, granzyme B 0.75 μg added 5 times, room temperature, 7 days), 2.7 times higher than background. Besides, in [10], the “fibrillin-1 cleavage (Western blot)” value is “cleaves fibrillin-1”. Moreover, the “fibronectin in SMC lysates (Western blot)” value in [11] is recorded as “reduction in the total amount of fibronectin”.
